Earlier results in paper PMC3040723.

Target: IscU (Escherichia coli) (UniProt P0ACD4)
Sequence (P0ACD4 whole entry): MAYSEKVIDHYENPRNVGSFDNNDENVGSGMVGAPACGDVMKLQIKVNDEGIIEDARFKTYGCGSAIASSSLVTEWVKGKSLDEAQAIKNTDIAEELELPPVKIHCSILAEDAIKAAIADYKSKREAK

HscB, sequence (P0A6L9 whole entry): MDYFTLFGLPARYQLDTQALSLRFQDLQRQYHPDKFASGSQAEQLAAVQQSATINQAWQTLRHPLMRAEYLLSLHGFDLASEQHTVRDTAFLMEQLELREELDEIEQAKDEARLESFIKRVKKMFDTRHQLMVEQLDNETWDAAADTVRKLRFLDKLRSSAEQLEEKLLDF

Substance: HscB (from UniProt P0A6L9)
- Kd: 13 µM
